Test results taken from US20230322935A1 (published 2023).
Values belong to the binder of their own block, whether it stands above or below them.

Experiments:
[1] = biological target: T1, Human CD93 on the cell surface (human CD93 expressing CHO cells; HUVEC, U937 and KG1a cells) (human, UniProt Q9NPY3 22-652); assay: FACS blocking of MMRN2 binding; FIG. 45
T1 chain: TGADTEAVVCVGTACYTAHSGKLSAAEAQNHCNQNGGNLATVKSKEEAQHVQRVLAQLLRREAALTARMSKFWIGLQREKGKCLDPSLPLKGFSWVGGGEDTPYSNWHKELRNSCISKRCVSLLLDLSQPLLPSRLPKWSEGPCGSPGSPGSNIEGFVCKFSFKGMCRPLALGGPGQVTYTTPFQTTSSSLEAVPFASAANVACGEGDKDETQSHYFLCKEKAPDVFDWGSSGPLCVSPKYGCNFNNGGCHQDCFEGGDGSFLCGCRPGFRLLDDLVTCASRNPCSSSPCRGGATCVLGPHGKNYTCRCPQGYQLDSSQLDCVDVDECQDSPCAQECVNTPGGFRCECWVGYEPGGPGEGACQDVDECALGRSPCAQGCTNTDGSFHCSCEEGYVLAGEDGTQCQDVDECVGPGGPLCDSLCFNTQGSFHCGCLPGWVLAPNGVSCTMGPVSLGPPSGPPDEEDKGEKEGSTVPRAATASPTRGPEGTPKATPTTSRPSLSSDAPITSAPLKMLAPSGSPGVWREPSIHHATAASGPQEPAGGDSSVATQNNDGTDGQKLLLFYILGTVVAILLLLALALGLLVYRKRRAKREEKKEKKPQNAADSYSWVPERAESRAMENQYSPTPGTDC

[2] = biological target: T1, Human CD93 on the cell surface (human …); assay: FACS blocking of hIGFBP7-His binding; HUVEC cells

IC50 [1]: 225 nM
B1: h16E4 (humanized 16E4, VH4+VL6) (antibody, V domains shown)
VH: QVQLVQSGAEVKKPGASVKVSCKASGYTFTSYWMHWVRQAPGQGLEWMGEIDPSASYTYYNQKFKGRVTMTRDKSSSTVYMELSSLTSEDSAVYYCARSVYYGNKYFDVWGAGTTVTVSS
VL: DIQMTQSPSTLSASVGDRVTITCKASQSVDYAGDSYMNWYQQKPGKAPKLLIYAASNLESGVPSRFSGSGSGTEFTLTISSLQPDDFATYYCQQTNEDPRTFGGGTKLEIK

IC50 [2]: 1 nM
B2: h7F3 (humanized 7F3, VH3+VL3) (antibody, V domains shown)
VH: QVQLVQSGAEVKKPGASVKVSCKASGYTFTDYEMHWVRQAPGQGLEWMGGIDPETGDTAYNQNFKGRVTMTTDTSTSTAYMELRSLTSDDTAVYYCTNYGNLYYYAMDYWGQGTSVTVSS
VL: EIVLTQSPSSLSASVGDRVTITCRASSSVSSSYLHWYQQKPGKAPKLLIYSTSNLAFGVPSRFSGSGSGTSYTFTISSLQPEDIATYYCQQYSGYPLTFGSGTKLEIK
